This note sets out measurements from patent US20170107293A1 (BIOINVENT INTERNATIONAL, published 2017).

Residue numbers refer to the chain shown, from its start.

For test [1], the target named is T1, Soluble hFcγRIIB (R & D Systems) (human, UniProt P31994 46-217).
T1 construct: Bought reagent; also called hFcγRIIB fusion protein
T1 sequence (looked up): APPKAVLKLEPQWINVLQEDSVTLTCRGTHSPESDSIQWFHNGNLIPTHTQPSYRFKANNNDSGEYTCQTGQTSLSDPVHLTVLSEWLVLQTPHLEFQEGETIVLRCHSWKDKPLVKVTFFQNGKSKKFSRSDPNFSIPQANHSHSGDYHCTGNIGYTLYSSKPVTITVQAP
The test can be described thus: SPR, mAb immobilised, soluble hFcγRIIB injected. On the procedure: (§1) A BIAcore T100 analyzer (GE Healthcare, UK) was used to determine the binding affinity of the hFcγRIIB mAb, as described elsewhere.²⁵ mAb were immobilized onto a CM5 sensorchip (GE Healthcare, UK), using standard amine coupling according to the manufacturer's instructions. Soluble hFcγRIIB (0.16-100 nM; R & D Systems, UK) was injected for 5 minutes and dissociation monitored for 10 minutes. Background binding to the control flow cell was monitored and subtracted automatically. The KD values were calculated from the 1:1 binding model using the BIAcore T100 Evaluation software.

The target of test [2] is T1, Soluble hFcγRIIB (R & D Systems). The test is described as follows: SPR, mAb immobilised, soluble hFcγRIIB injected; column headed KD (1/s). The method, then:
as §1
In general terms: In SPR one partner is held on a chip, and binding of the other changes the refractive index at the surface.

Test [3] shares this target. The test can be described thus: SPR, mAb immobilised, soluble hFcγRIIB injected; column headed KA (1/MS). On the procedure: as §1
Test [4] shares this target. The test is described as follows: SPR (Biacore T100), mAb immobilised on CM5, soluble hFcγRIIB injected, 1:1 model. The method, then:
as §1

The target in test [5] is T2, human FcγRIIB on cells (human, UniProt P31994 43-310).
T2 construct: whole, on cells; also called hFcγRIIB; CD32B
T2 sequence (looked up): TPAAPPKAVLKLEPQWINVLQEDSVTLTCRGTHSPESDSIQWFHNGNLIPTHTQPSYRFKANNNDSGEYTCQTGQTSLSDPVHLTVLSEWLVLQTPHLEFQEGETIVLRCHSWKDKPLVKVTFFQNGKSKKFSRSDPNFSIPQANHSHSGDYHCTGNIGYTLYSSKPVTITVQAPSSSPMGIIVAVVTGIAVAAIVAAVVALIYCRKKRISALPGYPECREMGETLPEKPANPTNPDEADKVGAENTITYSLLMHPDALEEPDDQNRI
The test is described as follows: inhibition of binding of IC to hFcγRIIB-transfected cells by the mAb [2/2) bottom].

In test [6] the target is T1, Soluble hFcγRIIB (R & D Systems). The test can be described thus: SPR (Biacore T100), mAb immobilised on CM5, soluble hFcγRIIB injected, 1:1 model; column headed KD (1/s). On the procedure: as §1
Test [7] has the same target. The test can be described thus: SPR (Biacore T100), mAb immobilised on CM5, soluble hFcγRIIB injected, 1:1 model; column headed KA (1/MS). On the procedure: as §1
Test [8] addresses T2, human FcγRIIB on cells. The test can be described thus: binding to hFcγRIIB-transfected cells, total fluorescence intensity against mAb concentration [2/2) bottom].
The target in test [9] is T3, human FcγRIIA on cells (human, UniProt P12318 34-317).
T3 construct: whole, on cells; also called hFcγRIIA; FcγRIIA^+ve CHO
T3 sequence (looked up): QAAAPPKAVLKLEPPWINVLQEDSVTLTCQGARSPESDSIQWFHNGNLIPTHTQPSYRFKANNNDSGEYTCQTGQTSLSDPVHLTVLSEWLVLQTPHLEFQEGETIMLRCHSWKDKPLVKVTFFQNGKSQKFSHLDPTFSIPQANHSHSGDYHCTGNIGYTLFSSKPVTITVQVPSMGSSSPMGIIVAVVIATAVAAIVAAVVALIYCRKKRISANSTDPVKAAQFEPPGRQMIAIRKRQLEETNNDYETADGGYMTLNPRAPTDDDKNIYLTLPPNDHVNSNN
The test is described as follows: binding to FcγRIIA-transfected CHO-k1 cells.

Test [10] deals with T1, Soluble hFcγRIIB (R & D Systems). The test can be described thus: SPR, mAb immobilised, soluble hFcγRIIB injected; Table 2 gives the same values for 6G08. The method, then: as §1
The target is the same in test [11]. The test is described as follows: SPR, mAb immobilised, soluble hFcγRIIB injected; column headed KD (1/s); Table 2 gives the same values for 6G08. On the procedure:
as §1

Test [12] concerns the target T3, human FcγRIIA on cells. The test is described as follows: binding to FcγRIIA-transfected CHO-k1 cells. This is another data set of the same source.
In test [13] the target is T3, human FcγRIIA on cells. The test can be described thus: flow cytometry on human PBMC populations, MFI; monocytes and neutrophils read as hFcγRIIA-bearing as in the legend.
Test [14] has as its target T4, cynomolgus monkey FcγRIIB (cynomolgus monkey, UniProt A0A140HDP4 43-312).
T4 construct: whole, on cells; also called FcγRIIB in other species
T4 sequence: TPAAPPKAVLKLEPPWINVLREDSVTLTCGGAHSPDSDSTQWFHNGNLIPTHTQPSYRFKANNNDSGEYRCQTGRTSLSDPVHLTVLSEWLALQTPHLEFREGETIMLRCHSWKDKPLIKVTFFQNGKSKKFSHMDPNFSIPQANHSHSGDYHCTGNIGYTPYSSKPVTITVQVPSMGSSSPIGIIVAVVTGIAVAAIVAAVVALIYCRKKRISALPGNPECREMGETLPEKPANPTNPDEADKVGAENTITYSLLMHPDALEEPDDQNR
The test can be described thus: IHC on frozen tissue sections.

The target in test [15] is T5, rat FcγRIIB (rat, UniProt A0A0G2K9R6 42-295).
T5 construct: also called FcγRIIB in other species
T5 sequence: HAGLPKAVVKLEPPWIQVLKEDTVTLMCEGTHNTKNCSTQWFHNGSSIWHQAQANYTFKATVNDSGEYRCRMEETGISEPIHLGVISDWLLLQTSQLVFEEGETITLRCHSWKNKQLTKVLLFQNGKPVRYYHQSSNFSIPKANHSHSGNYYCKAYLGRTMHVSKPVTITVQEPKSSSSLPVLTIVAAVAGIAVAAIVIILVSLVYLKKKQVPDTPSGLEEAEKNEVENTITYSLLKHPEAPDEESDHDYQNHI
The test is described as follows: IHC on frozen tissue sections.

The target of test [16] is T6, mouse FcγRIIB (mouse, UniProt P08101 30-330).
T6 construct: whole, on cells; also called mFcγRII; FcγRIIB in other species
T6 sequence (looked up): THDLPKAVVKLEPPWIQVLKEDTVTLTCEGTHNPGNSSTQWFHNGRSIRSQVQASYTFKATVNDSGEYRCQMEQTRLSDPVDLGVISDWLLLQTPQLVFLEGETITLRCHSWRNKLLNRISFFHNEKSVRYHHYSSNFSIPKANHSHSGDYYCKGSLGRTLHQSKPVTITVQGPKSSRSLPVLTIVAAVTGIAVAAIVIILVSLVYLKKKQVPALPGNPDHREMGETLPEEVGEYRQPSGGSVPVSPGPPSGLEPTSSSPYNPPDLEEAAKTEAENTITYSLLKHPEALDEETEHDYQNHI
The test is described as follows: IHC on frozen tissue sections.

The target of test [17] is T3, human FcγRIIA on cells. The test is described as follows: not specified (summary in the discussion).

B1: 5C04 (antibody, human IgG1, V domains shown)
VH: EVQLLESGGGLVQPGGSLRLSCAASGFTFSNYGMHWVRQAPGKGLEWVAVISYDGSNKYYADSVKGRFTISRDNSKNTLYLQMNSLRAEDTAVYYCAREWRDAFDIWGQGTLVTVSS
VL: QSVLTQPPSASGTPGQRVTISCTGSSSNIGAGYDVHWYQQLPGTAPKLLIYSDNQRPSGVPDRFSGSKSGTSASLAISGLRSEDEADYYCAAWDDSLSGSWVFGGGTKLTVLG
notes: hFcγRIIB mAb, human IgG1 (WT); Only VH/VL tied to the clone; also called Antibody clone: 5C04
As a reminder, the Kd is the equilibrium constant for the complex coming apart. One may read the koff as the rate constant with which the complex falls apart. The kon is the second-order rate constant of association. A word on the EC50 (read off the curve): it is the concentration giving half of the maximal effect. Consider B1, for which the dissociation constant Kd in test [1] and in test [4] was 142 nM in each case. The dissociation rate constant (koff) in [2] and in test [6] was 0.0481 s⁻¹ throughout. Further, the kon in test [3] and in test [7] was 324000 M⁻¹ s⁻¹ in each case. Also, the “IC50 (read off the curve)” value in test [5] is about 0.6 nM. The “EC50 (read off the curve)” value in test [8] was about 0.4 nM.

B2: 5G08 (antibody, human IgG1, V domains shown)
VH: B1 VH with S30N, K58R, I70M, E99D, W100R, R101W, D102N, A103G, F104M, I106V
VL: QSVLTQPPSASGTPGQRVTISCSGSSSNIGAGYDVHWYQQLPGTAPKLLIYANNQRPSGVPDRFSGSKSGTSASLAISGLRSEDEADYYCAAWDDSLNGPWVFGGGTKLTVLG
notes: hFcγRIIB mAb, human IgG1 (WT); Only VH/VL tied to the clone; also called Antibody clone: 5G08
For the molecule B2, the binding result in test [9] was “no binding”. This molecule returned a dissociation constant Kd in test [10] of 713 nM. Besides, in test [11], the dissociation rate constant (koff) was found to be 0.337 s⁻¹.

B3: 5C05 (antibody, human IgG1, V domains shown)
VH: B1 VH with N31T, W100N, R101F, I106V
VL: B1 VL with D53N, N54S, S98N, S100Q, W101V
notes: hFcγRIIB mAb, human IgG1 (WT); Only VH/VL tied to the clone; also called Antibody clone: 5C05
With B3, in [12], the binding result is listed as “no binding”. In addition, the Kd in test [1] and in [4] was 2210 nM in each case. Further, the off-rate (koff) in [2] and in test [6] was 0.00177 s⁻¹ in each case. In addition, the kon in test [3] and in test [7] was 802 M⁻¹ s⁻¹ each time.

B4: 6A09 (antibody, human IgG1, V domains shown)
VH: EVQLLESGGGLVQPGGSLRLSCAASGFTFSSYGMHWVRQAPGKGLEWVAVTSYDGNTKYYANSVKGRFTISRDNSKNTLYLQMNSLRAEDTAVYYCAREDCGGDCFDYWGQGTLVTVSS
VL: QSVLTQPPSASGTPGQRVTISCTGSSSNIGAGYDVHWYQQLPGTAPKLLIYGNSNRPSGVPDRFSGSKSGTSASLAISGLRSEDEADYYCAAWDDSLNEGVFGGGTKLTVLG
notes: hFcγRIIB mAb said to be likely dual-specific for hFcγRIIA and B; human IgG1 (WT); Only VH/VL tied to the clone; also called Antibody clone: 6A09
Consider B4, for which the binding result in test [13] is recorded as “binds”.

B5: 6G11 (antibody, human IgG1, V domains shown)
VH: B1 VH with N31S, V48M, W100L, R101Y
VL: B4 VL with G52A, N53D, S54D, N55H, A92S, L97Q, N98R, E99A, G100V, V101I
notes: Lead antagonistic hFcγRIIB mAb, human IgG1 (WT); Only VH/VL tied to the clone; also called Antibody clone: 6G11; WT 6G11
For B5, the binding result in test [14], in [15], in [16] and in [17] was “no binding” each time. Also, the Kd in [1] and in [4] was 26.4 nM throughout. Also, the off-rate constant (koff) in [2] and in test [6] was 0.182 s⁻¹ each time. The kon in [3] and in [7] was 6.9e+06 M⁻¹ s⁻¹ in each case.
